Here are results for seven compounds from patent US8795627B2, “Treatment of liver disorders by administration of RAP conjugates” (Raptor Pharmaceuticals Inc., priority 2007, dated 2014).

Bridge positions count the residues as written; N and C are the ends. * marks the point of attachment. Biotin = O=C1N[C@H]2[C@H](CS[C@H]2CCCCC(=O)*)N1

For one data set, the system named is hepatocellular carcinoma. To be noted: systemic chemotherapy, HCC patients; cited from earlier work.
The target of data set [1] is T1, recombinant human LRP1 cluster II (Homo sapiens, UniProt Q07954).
T1 construct: R&D Systems, amino acids 786-1165, with C-terminal Fc tag; purchased R&D Systems
T1 sequence (Q07954 805-1184): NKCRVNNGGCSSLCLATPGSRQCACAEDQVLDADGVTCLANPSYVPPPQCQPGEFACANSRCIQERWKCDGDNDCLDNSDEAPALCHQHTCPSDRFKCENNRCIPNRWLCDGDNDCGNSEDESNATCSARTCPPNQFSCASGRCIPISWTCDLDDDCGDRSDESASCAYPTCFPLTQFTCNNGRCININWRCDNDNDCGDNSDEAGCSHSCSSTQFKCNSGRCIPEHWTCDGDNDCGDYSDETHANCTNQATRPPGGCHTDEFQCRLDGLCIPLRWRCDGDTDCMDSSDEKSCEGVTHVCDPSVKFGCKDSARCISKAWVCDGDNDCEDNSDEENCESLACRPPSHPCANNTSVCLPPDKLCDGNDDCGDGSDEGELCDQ
The data set can be described thus: Solid phase binding assay, affinity for LRP1 cluster II. An excerpt: (§1) Control wells contained no added inhibitor. […] Excess HRP conjugate was removed and wells washed. Color was developed using TMB reagents (BioRad, Hercules, Calif.).

The target of data set [2] is T2, LRP1-C2 (Homo sapiens, UniProt Q07954).
T2 sequence (Q07954 805-1184): T1 sequence (Q07954 805-1184)
The data set can be described thus: Inhibition of RAP d3 binding to LRP1-C2, solid phase assay (anti-biotin antibody, preincubation with receptor). To be noted: fit parameter of inhibition curve, 2 nM RAP d3.
Description: Briefly, recombinant human LRP1 cluster II (R&D Systems, amino acids 786-1165, with C-terminal Fc tag, 1 μg) was used to coat Nunc MAXISORP™ 96-well plates in TBS pH 8 supplemented with 5 mM CaCl2 (TBSC) overnight at 4° C. Wells were washed with TBSC and blocked with TBSC containing 2% BSA.
Since the ligand binding competence of CR pairs requires calcium, identical binding reactions were done in the presence of 50 mM EDTA to provide a measure of non-specific binding. Control wells contained no added inhibitor. Wells were washed with TBS supplemented with 5 mM CaCl2 and 0.05% Tween-20. Bound ligand was detected with either anti-5-peptide-HRP conjugate (Abcam) or anti-α-2-macroglobulin-HRP conjugate (Abcam). Excess HRP conjugate was removed and wells washed. Color was developed using TMB reagents (BioRad, Hercules, Calif.). Absorption at 450 nm was measured with a microplate spectrophotometer (Molecular Devices, Palo Alto).
The same procedure was performed for the controls; peptide alone, antibody alone and full-length RAP.

The conditions of data set [3]: in vivo, iv; cited from earlier work.
Data set [4] has as its target T2, LRP1-C2. Put plainly: Inhibition of RAP d3 binding to LRP1-C2, solid phase assay (streptavidin multimerization). The arrangement: R&D Systems, amino acids 786-1165, with C-terminal Fc tag; purchased R&D Systems.
From the text: as §1

The conditions of data set [5]: rat, in vivo, iv; cited from earlier work.
The next data set has as its system wild-type CHO-K1 cells. Put plainly: MTT cell viability after toxin delivery, wild-type CHO-K1. To be noted: 48 hours.
Data set [6] relates to LRP1-deficient CHO-K1 cells. Put plainly: MTT cell viability after toxin delivery, LRP1-deficient CHO-K1. The settings on record: LRP-deficient CHO-K1, 1 μM, 48 hours.
Description: (§2) In order to determine whether a RAP peptide conjugated to a cytotoxic agent could effectively deliver the toxin to the cell and initiate cell death, an in vitro assay was used to assess delivery of toxin via the RAP-LRP1 binding and internalization pathway.
(§3) Wild-type and LRP1-deficient CHO-K1 cells were grown in BioWhittaker Ultra-CHO supplemented with 5% fetal bovine serum. Cells were seeded in 12-well plates 48 hours prior to the experiment. […] The mixture was diluted into growth media to 100 nM and added to wells in duplicate. […] Cells were incubated for 48 hours at 37° C., 5% CO2 in a humidified chamber. Cell viability for each treatment condition was determined with an MTT assay kit (Invitrogen, San Diego).
The conditions of data set [7]: in vivo.
The conditions of data set [8]: in vivo, iv; cited from earlier work. This is another data set of the same source.

Description for wild-type CHO-K1 cells: as §2, §3

Turning to `COc1cccc2c1C(=O)c1c(O)c3c(c(O)c1C2=O)C[C@@](O)(C(=O)CO)C[C@@H]3O[C@H]1C[C@H](N)[C@H](O)[C@H](C)O1` [adriamycin], the response rates with hepatocellular carcinoma is 15-20%.

Regarding “Biotin-GGSGGCEAKIEKHNHYQKQLEIAHEKLRHAESVGDGERVSRSREKHALLEGRTKELGYTVKKHGC (disulfide 6-65 (inferred)) [mRAP-14c]”, the Kd (usually the equilibrium constant for the complex coming apart) in data set [1] is roughly 21 nM.

Take “Biotin-GGSGGCGKHFEAKIEKHNHYQKQLEIAHEKLRHAESVGDGERVSRSREKHALLEGRTKELGYTVKKHLQDGC (disulfide 6-72 (inferred)) [mRAP-8c]”: the Kd in [1] was roughly 4 nM.

“RAP: mature full-length receptor-associated protein, 323 amino acids (SEQ ID NO: 1); Tables 3 and 4, b198” gave a Maximum binding in the data set with LRP1-C2 [2] of 0.74. In addition, the toxicity entry in data set [3] is given as “no measurable toxicity”. The “fold better EC50 than peptide assembled on streptavidin” value with LRP1-C2 [4] is “about 10 fold”. The compound also came in with a Maximum binding in the data set with LRP1-C2 [4] (fit parameter of inhibition curve, 2 nM RAP d3) of 0.29. Moreover, in data set [5], the “accumulation in heart, brain, muscle or kidney” value is listed as < 1 % of injected dose and the circulating half-life result was “less than a minute”.

In the case of Saporin [reference compound], the “loss of viable cells” value in the data set on wild-type CHO-K1 cells (wild-type CHO-K1, 1 μM) is recorded as “about 55%”; in data set [6] it was roughly 35%.

Regarding “biotin-GGSGGCGFREELKHFEAKIEKHNHYQKQLEIAHEKLRHAESVGDGERVSRS REKHALLEGRTKELGYTVKKHLQDLSGGC [mini-RAPc]”, in the data set on wild-type CHO-K1 cells (100 nM, cell type not specified (wild-type and LRP1-deficient CHO-K1 tested)), the “effect on cell survival” value is “no significant effect on cell survival”.

Regarding “streptavidin: streptavidin alone, control (35S-labeled in bio-distribution studies) [reference compound]”, the “uptake in the woodchuck liver, mean” value in data set [7] was found to be 435 PSL/mm^2. The tissue accumulation result in data set [8] is recorded as “accumulate in kidney, but not significantly in liver”. For the same compound, the “inhibitory effect on RAP d3 binding” value with LRP1-C2 [4] (in words) was “no inhibitory effect”.
